Among the data in publication PMC5261807 (2017) are binding score values, retold here.

Experiment [1] has as its target T1, Bdf1 bromodomain 2 (GST-tagged, WT) (Saccharomyces cerevisiae (strain ATCC …, UniProt P35817)).
T1 chain: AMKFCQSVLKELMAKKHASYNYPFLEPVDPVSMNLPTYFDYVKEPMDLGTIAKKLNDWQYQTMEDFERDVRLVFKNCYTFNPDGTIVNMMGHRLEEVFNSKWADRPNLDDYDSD
Description: histone peptide array probed with recombinant GST-bromodomain, signal normalised to myc peptide control.

For experiment [2], the target named is T2, Bdf1 bromodomain 1 (GST-tagged, WT) (Saccharomyces cerevisiae (strain ATCC …, UniProt P35817)).
T2 chain: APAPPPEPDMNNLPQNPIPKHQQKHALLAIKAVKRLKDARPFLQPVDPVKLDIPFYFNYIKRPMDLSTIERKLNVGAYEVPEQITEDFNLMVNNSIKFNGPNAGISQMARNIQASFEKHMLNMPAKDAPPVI
The description is as above.

Non-standard residues stand in square brackets, D forms with d. No end group written: not given here. Arg(Me2a) = CN(C)C(=N)NCCC[C@H](N)C(=O)O; Lys(Me3) = C[N+](C)(C)CCCC[C@H](N)C(=O)O; Arg(Me2s) = CN=C(NC)NCCC[C@H](N)C(=O)O; pT = C[C@@H](OP(=O)(O)O)[C@H](N)C(=O)O; Lys(Me2) = CN(C)CCCC[C@H](N)C(=O)O; pS = N[C@@H](COP(=O)(O)O)C(=O)O; Lys(Me) = CNCCCC[C@H](N)C(=O)O

B1: H3 1-19 (peptide)
chain: ARTKQTARKSTGGKAPRKQ
modifications: A Rme2s T Kme2 Q T A Rme2s Kme1 S T G G K A P R K Q
As to B1, the binding score in experiment [1] came out at 0.00423; in experiment [2], 0.00323.

B2: H3 1-19 (peptide)
chain: ARTK(Me3)QTARKSTGGKAPRKQ
As to B2, the binding score worked out at 0.00148 in experiment [1] and 0 in experiment [2].

B3: H3 1-19 (peptide)
chain: ARTKQTARKSTGGKAPRKQ
modifications: A Rme2a T Kme1 Q T A Rme2a Kme2 S T G G K A P R K Q
With B3, the results for the binding score in experiment [1] and in experiment [2] were 0.000885 and 0.00251, respectively.

B4: H3 1-19 (peptide)
chain: ARTKQTARKSTGGKAPRKQ
modifications: A Rme2s T Kme3 Q T A R K S T G G K A P R K Q
With B4, the binding score in experiment [1] and in experiment [2] was 0 throughout.

B5: H3 1-19 (peptide)
chain: AR[pT][Lys(Me3)]QTARKSTGGKAPRKQ
Take B5: the binding score in experiment [1] came to 0.006; in experiment [2], 0.00305.

B6: H3 1-19 (peptide)
chain: ARTKQTARKSTGGKAPRKQ
modifications: A Rme2s T Kme1 Q T A Rme2s Kac S T G G K A P R K Q
Consider B6, for which the binding score in experiment [1] came to 0.0269; in experiment [2], 0.0109.

B7: H3 1-19 (peptide)
chain: ARTKQTARKSTGGKAPRKQ
modifications: A R T K Q T A R Kme3 S T G G K A P R K Q
As for B7, the binding score amounted to 0.00305 in experiment [1] and 0 in experiment [2].

B8: H3 1-19 (peptide)
chain: ARTKQTARKSTGGKAPRKQ
modifications: A R T K Q T A R Kme1 S pT G G K A P R K Q
With B8, the binding score is 0.00344 in experiment [1] and 0.0122 in experiment [2].

B9: H3 1-19 (peptide)
chain: A[Arg(Me2s)]TK(Ac)QTARK(Me)STGGKAPRKQ
As to B9, the binding score in experiment [1] was found to be 0.00305; in experiment [2] it was 0.00341.

B10: H3 16-35 (peptide)
chain: PRKQLATKAA[Arg(Me2s)][Lys(Me3)][pS]APATGG
Take B10: the binding score in experiment [1] was 0; in experiment [2], 0.00753.

B11: H3 16-35 (peptide)
chain: PRKQLATKAA[Arg(Me2s)][Lys(Me)][pS]APATGG
In the case of B11, the binding score in experiment [1] and in experiment [2] was 0 each time.

B12: H3 26-45 (peptide)
chain: RKSAPATGGVKKPHRYRPG
modifications: R K S A P A T G G V Kme3 K P H R Y R P G
For B12, the binding score in experiment [1] and in experiment [2] was 0 in each case.

B13: H3 26-45 (peptide)
chain: RKSAPATGGVKKPHRYRPG
modifications: histone peptides carry modifications given inline in the sequence and in columns 4-7 (Kac, Kme1/2/3, Rme2a/s, Cit, pS/pT); N-terminus free or acetylated
For the molecule B13, the binding score in experiment [1] stood at 0.00305; in experiment [2], 0.00968.

B14: H3 1-19 (peptide)
chain: ARTKQTARKSTGGKAPRKQ
modifications: A R T K Q T A R K S pT G G Kac A P R K Q
B14: the binding score in experiment [1] came to 0.121; in experiment [2], 0.00574.

B15: H4 1-19 (peptide)
chain: SGRGKGGKGLGKGGAKRHR
modifications: S G R G Kac G G K G L G K G G A K R H R
For B15, the binding score in experiment [1] turned out to be 0.0404; in experiment [2] it was 0.00681.

B16: H3 1-19 (peptide)
chain: ARTKQTARKSTGGKAPRKQ
modifications: A R T K Q T A Rme2a Kme2 pS T G G K A P R K Q
As for B16, the binding score in experiment [1] came to 0.0062; in experiment [2], 0.00215.

B17: H3 1-19 (peptide)
chain: ARTKQTARKSTGGKAPRKQ
modifications: A Rme2s T Kme2 Q T A Rme2s K S T G G K A P R K Q
With B17, the binding score is 0.00226 in experiment [1] and 0 in experiment [2].

B18: H3 1-19 (peptide)
chain: A[Arg(Me2s)]T[Lys(Me2)]QTA[Arg(Me2s)][Lys(Me2)]STGGKAPRKQ
As to B18, the binding score in experiment [1] and in experiment [2] was 0 throughout.

B19: H3 1-19 (peptide)
chain: ARTKQTA[Arg(Me2a)][Lys(Me2)][pS][pT]GGKAPRKQ
For B19, the values for the binding score in experiment [1] and in experiment [2] were 0 and 0.00448, respectively.

B20: H3 16-35 (peptide)
chain: PRKQLATKAA[Arg(Me2s)]KSAPATGG
Consider B20, for which the binding score in experiment [1] and in experiment [2] was 0 throughout.

B21: H3 1-19 (peptide)
chain: ARTKQTARKSTGGKAPRKQ
modifications: not fully specified
On to B21, for which the binding score was 0.00718 in experiment [1] and 0.00592 in experiment [2].

B22: H3 1-19 (peptide)
chain: ARTKQTARKSTGGKAPRKQ
modifications: A R T K Q T A R Kme2 S T G G Kac A P R K Q
As for B22, the binding score came out at 0.104 in experiment [1] and 0.0411 in experiment [2].

B23: H4 1-19 (peptide)
chain: SGRGKGGKGLGKGGAKRHR
modifications: S G R G Kac G G Kac G L G Kac G G A K R H R
B23: the binding score in experiment [1] was 0.496; in experiment [2], 0.307.

B24: H3 16-35 (peptide)
chain: PRKQLATKAARKSAPATGG
modifications: histone peptides carry modifications given inline in the sequence and in columns 4-7 (Kac, Kme1/2/3, Rme2a/s, Cit, pS/pT); N-terminus free or acetylated
For B24, the binding score in experiment [1] and in experiment [2] was 0 each time.

B25: H3 1-19 (peptide)
chain: ARTKQTARKSTGGKAPRKQ
modifications: A Rme2s T Kac Q T A Rme2s Kme2 S T G G K A P R K Q
B25: the binding score in experiment [1] and in experiment [2] was 0 each time.

B26: H3 1-19 (peptide)
chain: ART[Lys(Me3)]QTA[Arg(Me2a)][Lys(Me)]STGGKAPRKQ
In the case of B26, the binding score in experiment [1] was found to be 0.00148; in experiment [2], 0.

B27: H3 1-19 (peptide)
chain: ARTKQTARKSTGGKAPRKQ
modifications: A R T K Q T A R Kme1 S T G G Kac A P R K Q
Regarding B27, the results for the binding score in experiment [1] and in experiment [2] were 0.0902 and 0.0251, respectively.

B28: H3 1-19 (peptide)
chain: ARTKQTARKSTGGKAPRKQ
modifications: A Rme2s T Kme1 Q T A Rme2s K S T G G K A P R K Q
B28: the binding score in experiment [1] is 0.0062; in experiment [2], 0.

B29: H3 1-19 (peptide)
chain: ARTKQTA[Arg(Me2a)][Lys(Me3)][pS][pT]GGKAPRKQ
As to B29, the binding score in experiment [1] turned out to be 0; in experiment [2], 0.00251.

B30: H3 1-19 (peptide)
chain: ARTKQTARKSTGGKAPRKQ
modifications: A R T Kme2 Q T A Rme2s Kme1 S T G G K A P R K Q
Turning to B30, the binding score in experiment [1] and in experiment [2] was 0 in each case.

B31: H3 1-19 (peptide)
chain: ARTKQTA[Arg(Me2a)]K(Me)[pS]TGGKAPRKQ
As for B31, the binding score in experiment [1] was 0.00521; in experiment [2], 0.

B32: H3 1-19 (peptide)
chain: ARTKQTARKSTGGKAPRKQ
modifications: A Rme2a T Kac Q T A Rme2a K S T G G K A P R K Q
Regarding B32, the figures for the binding score in experiment [1] and in experiment [2] were 0.00718 and 0.00932, respectively.

B33: H3 1-19 (peptide)
chain: A[Arg(Me2a)]TK(Ac)QTARKSTGGKAPRKQ
Turning to B33, the binding score was 0.00915 in experiment [1] and 0.00897 in experiment [2].

B34: H3 1-19 (peptide)
chain: ARTKQTARKSTGGKAPRKQ
modifications: A Rme2s T Kme2 Q T A R K S T G G K A P R K Q
B34: the binding score in experiment [1] and in experiment [2] was 0 each time.

B35: H3 1-19 (peptide)
chain: ARTKQTARKSTGGKAPRKQ
modifications: A Rme2a T Kme2 Q T A Rme2a K S T G G K A P R K Q
As to B35, the binding score amounted to 0.00698 in experiment [1] and 0.00323 in experiment [2].

B36: H3 1-19 (peptide)
chain: A[Arg(Me2a)]TK(Me3)QTARKSTGGKAPRKQ
Turning to B36, the binding score in experiment [1] is 0.00344; in experiment [2], 0.0122.

B37: H3 1-19 (peptide)
chain: ARTKQTA[Arg(Me2a)]K(Ac)[pS]TGGKAPRKQ
Consider B37, for which the binding score in experiment [1] was 0.00384; in experiment [2], 0.00126.

B38: H3 1-19 (peptide)
chain: ARTKQTARKSTGGKAPRKQ
modifications: A Rme2s T Kme3 Q T A R Kme3 S T G G K A P R K Q
Regarding B38, the binding score in experiment [1] came to 0; in experiment [2], 0.0117.

B39: H2B 1-19 (peptide)
chain: PDPAK(Ac)SAPAPKK(Ac)G[pS]K(Ac)KAVT
As to B39, the binding score came to 0.181 in experiment [1] and 0 in experiment [2].

B40: H3 1-19 (peptide)
chain: ARTKQTARKSTGGKAPRKQ
modifications: A R T Kme3 Q T A Rme2s Kme3 S T G G K A P R K Q
As to B40, the binding score in experiment [1] and in experiment [2] was 0 in each case.

B41: H3 1-19 (peptide)
chain: ARTK(Ac)QTARKSTGGKAPRKQ
B41: the figures for the binding score in experiment [1] and in experiment [2] were 0.00679 and 0.000538, respectively.

B42: H2a 1-19 (peptide)
chain: [pS]GRGK(Ac)QGGKARAKAKSRSS
As to B42, the results for the binding score in experiment [1] and in experiment [2] were 0.0135 and 0.00197, respectively.

B43: H3 1-19 (peptide)
chain: ARTKQTARKSTGGKAPRKQ
modifications: A Rme2a T Kac Q T A Rme2a Kme3 S T G G K A P R K Q
Turning to B43, the binding score in experiment [1] was found to be 0.00659; in experiment [2], 0.0133.

B44: H3 1-19 (peptide)
chain: ARTKQTA[Arg(Me2a)][Lys(Me)][pS][pT]GGKAPRKQ
For B44, the binding score in experiment [1] and in experiment [2] was 0 in each case.

B45: H3 1-19 (peptide)
chain: ARTKQTARKSTGGKAPRKQ
modifications: A Rme2a T Kme2 Q T A Rme2a Kac S T G G K A P R K Q
For B45, the binding score in experiment [1] came to 0.00423; in experiment [2], 0.0126.
